The values that follow come from patent publication US20250361268A1, “NOVEL ANTI-INFLAMMATORY PEPTIDE AND USE THEREOF” (NOVACELL TECHNOLOGY INC., priority 2022, published 2025).

The labels stand for the following.
T1: formyl peptide receptor 2 (FPR2) (UniProt P25090 1-351, limits assumed)
T1 sequence (looked up): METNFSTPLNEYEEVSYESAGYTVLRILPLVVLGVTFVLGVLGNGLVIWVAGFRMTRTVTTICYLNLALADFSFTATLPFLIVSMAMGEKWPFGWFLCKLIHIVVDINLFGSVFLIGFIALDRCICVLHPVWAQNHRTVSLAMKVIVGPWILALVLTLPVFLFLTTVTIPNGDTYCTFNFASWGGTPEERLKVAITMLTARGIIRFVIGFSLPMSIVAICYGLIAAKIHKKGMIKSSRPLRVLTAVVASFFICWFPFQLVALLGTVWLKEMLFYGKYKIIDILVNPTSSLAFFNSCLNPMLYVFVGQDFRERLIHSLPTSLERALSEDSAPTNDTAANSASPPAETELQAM

T2: FPR1 (UniProt P21462 1-350, limits assumed)
T2 sequence (looked up): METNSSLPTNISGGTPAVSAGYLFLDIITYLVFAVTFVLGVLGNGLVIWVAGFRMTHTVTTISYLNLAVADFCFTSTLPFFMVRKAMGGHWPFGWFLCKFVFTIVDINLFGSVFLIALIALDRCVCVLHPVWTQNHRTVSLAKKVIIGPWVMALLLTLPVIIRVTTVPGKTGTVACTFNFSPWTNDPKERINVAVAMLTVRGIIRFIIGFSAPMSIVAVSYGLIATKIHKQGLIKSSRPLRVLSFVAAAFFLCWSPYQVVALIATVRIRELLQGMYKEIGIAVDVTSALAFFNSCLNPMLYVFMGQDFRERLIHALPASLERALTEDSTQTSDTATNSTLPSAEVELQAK

B1: peptide of SEQ ID NO 119 (peptide)
peptide: RMRYYPM
HELM: PEPTIDE1{[ac].R.M.R.Y.Y.P.[dM].[am]}$$$$V2.0
SMILES: CSCC[C@H](NC(=O)[C@H](CCCNC(=N)N)NC(C)=O)C(=O)N[C@@H](CCCNC(=N)N)C(=O)N[C@@H](Cc1ccc(O)cc1)C(=O)N[C@@H](Cc1ccc(O)cc1)C(=O)N1CCC[C@H]1C(=O)N[C@H](CCSC)C(N)=O
B2: peptide of SEQ ID NO 1 (peptide)
peptide: RWRYKVM
HELM: PEPTIDE1{R.W.R.Y.K.V.[dM].[am]}$$$$V2.0; N-terminus assumed
SMILES: CSCC[C@@H](NC(=O)[C@@H](NC(=O)[C@H](CCCCN)NC(=O)[C@H](Cc1ccc(O)cc1)NC(=O)[C@H](CCCNC(=N)N)NC(=O)[C@H](Cc1c[nH]c2ccccc12)NC(=O)[C@@H](N)CCCNC(=N)N)C(C)C)C(N)=O
B3: peptide of SEQ ID NO 46 (peptide)
peptide: PMRYKYM
HELM: PEPTIDE1{P.M.R.Y.K.Y.[dM].[am]}$$$$V2.0; N-terminus assumed
SMILES: CSCC[C@H](NC(=O)[C@@H]1CCCN1)C(=O)N[C@@H](CCCNC(=N)N)C(=O)N[C@@H](Cc1ccc(O)cc1)C(=O)N[C@@H](CCCCN)C(=O)N[C@@H](Cc1ccc(O)cc1)C(=O)N[C@H](CCSC)C(N)=O
B4: peptide of SEQ ID NO 5 (peptide)
peptide: RMRYKVM
HELM: PEPTIDE1{R.M.R.Y.K.V.[dM].[am]}$$$$V2.0; N-terminus assumed
SMILES: CSCC[C@H](NC(=O)[C@@H](N)CCCNC(=N)N)C(=O)N[C@@H](CCCNC(=N)N)C(=O)N[C@@H](Cc1ccc(O)cc1)C(=O)N[C@@H](CCCCN)C(=O)N[C@H](C(=O)N[C@H](CCSC)C(N)=O)C(C)C
B5: peptide of SEQ ID NO 118 (peptide)
peptide: WRYWPM
HELM: PEPTIDE1{W.R.Y.W.P.[dM].[am]}$$$$V2.0; N-terminus assumed
SMILES: CSCC[C@@H](NC(=O)[C@@H]1CCCN1C(=O)[C@H](Cc1c[nH]c2ccccc12)NC(=O)[C@H](Cc1ccc(O)cc1)NC(=O)[C@H](CCCNC(=N)N)NC(=O)[C@@H](N)Cc1c[nH]c2ccccc12)C(N)=O
B6: peptide of SEQ ID NO 121 (peptide)
peptide: RWRYYPM
HELM: PEPTIDE1{[ac].R.W.R.Y.Y.P.[dM].[am]}$$$$V2.0
SMILES: CSCC[C@@H](NC(=O)[C@@H]1CCCN1C(=O)[C@H](Cc1ccc(O)cc1)NC(=O)[C@H](Cc1ccc(O)cc1)NC(=O)[C@H](CCCNC(=N)N)NC(=O)[C@H](Cc1c[nH]c2ccccc12)NC(=O)[C@H](CCCNC(=N)N)NC(C)=O)C(N)=O
B7: peptide of SEQ ID NO 122 (peptide)
peptide: WRYYPM
HELM: PEPTIDE1{[ac].W.R.Y.Y.P.[dM].[am]}$$$$V2.0
SMILES: CSCC[C@@H](NC(=O)[C@@H]1CCCN1C(=O)[C@H](Cc1ccc(O)cc1)NC(=O)[C@H](Cc1ccc(O)cc1)NC(=O)[C@H](CCCNC(=N)N)NC(=O)[C@H](Cc1c[nH]c2ccccc12)NC(C)=O)C(N)=O
B8: peptide of SEQ ID NO 31 (peptide)
peptide: HMRYRVM
HELM: PEPTIDE1{H.M.R.Y.R.V.[dM].[am]}$$$$V2.0; N-terminus assumed
SMILES: CSCC[C@H](NC(=O)[C@@H](N)Cc1c[nH]cn1)C(=O)N[C@@H](CCCNC(=N)N)C(=O)N[C@@H](Cc1ccc(O)cc1)C(=O)N[C@@H](CCCNC(=N)N)C(=O)N[C@H](C(=O)N[C@H](CCSC)C(N)=O)C(C)C
B9: peptide of SEQ ID NO 120 (peptide)
peptide: MRYYPM
HELM: PEPTIDE1{M.R.Y.Y.P.[dM].[am]}$$$$V2.0; N-terminus assumed
SMILES: CSCC[C@H](N)C(=O)N[C@@H](CCCNC(=N)N)C(=O)N[C@@H](Cc1ccc(O)cc1)C(=O)N[C@@H](Cc1ccc(O)cc1)C(=O)N1CCC[C@H]1C(=O)N[C@H](CCSC)C(N)=O
B10: peptide of SEQ ID NO 4 (peptide)
peptide: KWKYKVM
HELM: PEPTIDE1{[ac].K.W.K.Y.K.V.[dM].[am]}$$$$V2.0
SMILES: CSCC[C@@H](NC(=O)[C@@H](NC(=O)[C@H](CCCCN)NC(=O)[C@H](Cc1ccc(O)cc1)NC(=O)[C@H](CCCCN)NC(=O)[C@H](Cc1c[nH]c2ccccc12)NC(=O)[C@H](CCCCN)NC(C)=O)C(C)C)C(N)=O
B11: peptide of SEQ ID NO 114 (peptide)
peptide: MKYWPM
HELM: PEPTIDE1{[ac].M.K.Y.W.P.[dM].[am]}$$$$V2.0
SMILES: CSCC[C@H](NC(C)=O)C(=O)N[C@@H](CCCCN)C(=O)N[C@@H](Cc1ccc(O)cc1)C(=O)N[C@@H](Cc1c[nH]c2ccccc12)C(=O)N1CCC[C@H]1C(=O)N[C@H](CCSC)C(N)=O
B12: peptide of SEQ ID NO 115 (peptide)
peptide: MKYWPM
HELM: PEPTIDE1{[CCCC(=O)[*:2]].M.K.Y.W.P.[dM].[am]}$$$$V2.0
SMILES: CCCC(=O)N[C@@H](CCSC)C(=O)N[C@@H](CCCCN)C(=O)N[C@@H](Cc1ccc(O)cc1)C(=O)N[C@@H](Cc1c[nH]c2ccccc12)C(=O)N1CCC[C@H]1C(=O)N[C@H](CCSC)C(N)=O
B13: peptide of SEQ ID NO 151 (peptide)
peptide: HKYWPM
HELM: PEPTIDE1{[CCCC(=O)[*:2]].H.K.Y.W.P.[dM].[am]}$$$$V2.0
SMILES: CCCC(=O)N[C@@H](Cc1c[nH]cn1)C(=O)N[C@@H](CCCCN)C(=O)N[C@@H](Cc1ccc(O)cc1)C(=O)N[C@@H](Cc1c[nH]c2ccccc12)C(=O)N1CCC[C@H]1C(=O)N[C@H](CCSC)C(N)=O
B14: peptide of SEQ ID NO 150 (peptide)
peptide: HKYWPM
HELM: PEPTIDE1{[ac].H.K.Y.W.P.[dM].[am]}$$$$V2.0
SMILES: CSCC[C@@H](NC(=O)[C@@H]1CCCN1C(=O)[C@H](Cc1c[nH]c2ccccc12)NC(=O)[C@H](Cc1ccc(O)cc1)NC(=O)[C@H](CCCCN)NC(=O)[C@H](Cc1c[nH]cn1)NC(C)=O)C(N)=O
B15: peptide of SEQ ID NO 45 (peptide)
peptide: HMRYKYM
HELM: PEPTIDE1{[CCCC(=O)[*:2]].H.M.R.Y.K.Y.[dM].[am]}$$$$V2.0
SMILES: CCCC(=O)N[C@@H](Cc1c[nH]cn1)C(=O)N[C@@H](CCSC)C(=O)N[C@@H](CCCNC(=N)N)C(=O)N[C@@H](Cc1ccc(O)cc1)C(=O)N[C@@H](CCCCN)C(=O)N[C@@H](Cc1ccc(O)cc1)C(=O)N[C@H](CCSC)C(N)=O
B16: peptide of SEQ ID NO 117 (peptide)
peptide: RWRYWPM
HELM: PEPTIDE1{[ac].R.W.R.Y.W.P.[dM].[am]}$$$$V2.0
SMILES: CSCC[C@@H](NC(=O)[C@@H]1CCCN1C(=O)[C@H](Cc1c[nH]c2ccccc12)NC(=O)[C@H](Cc1ccc(O)cc1)NC(=O)[C@H](CCCNC(=N)N)NC(=O)[C@H](Cc1c[nH]c2ccccc12)NC(=O)[C@H](CCCNC(=N)N)NC(C)=O)C(N)=O
B17: peptide of SEQ ID NO 14 (peptide)
peptide: MRYKVM
HELM: PEPTIDE1{[ac].M.R.Y.K.V.[dM].[am]}$$$$V2.0
SMILES: CSCC[C@H](NC(C)=O)C(=O)N[C@@H](CCCNC(=N)N)C(=O)N[C@@H](Cc1ccc(O)cc1)C(=O)N[C@@H](CCCCN)C(=O)N[C@H](C(=O)N[C@H](CCSC)C(N)=O)C(C)C
B18: peptide of SEQ ID NO 137 (peptide)
peptide: IKYKVM
HELM: PEPTIDE1{[CCCCCCCC(=O)[*:2]].I.K.Y.K.V.[dM].[am]}$$$$V2.0
SMILES: CCCCCCCC(=O)N[C@H](C(=O)N[C@@H](CCCCN)C(=O)N[C@@H](Cc1ccc(O)cc1)C(=O)N[C@@H](CCCCN)C(=O)N[C@H](C(=O)N[C@H](CCSC)C(N)=O)C(C)C)[C@@H](C)CC
B19: peptide of SEQ ID NO 113 (peptide)
peptide: MKYWPM
HELM: PEPTIDE1{M.K.Y.W.P.[dM].[am]}$$$$V2.0; N-terminus assumed
SMILES: CSCC[C@H](N)C(=O)N[C@@H](CCCCN)C(=O)N[C@@H](Cc1ccc(O)cc1)C(=O)N[C@@H](Cc1c[nH]c2ccccc12)C(=O)N1CCC[C@H]1C(=O)N[C@H](CCSC)C(N)=O

The target in one experiment is T1, formyl peptide receptor 2 (FPR2). As to the kind of experiment: cell-based or functional assay.
Regarding B1, the “EC50 for [Ca2+]” value was under 10 nM.
Still for that read-out and setting: then B2, with under 10 nM; and B3, with under 10 nM.
On to B4, for which the “EC50 for [Ca2+]” value was under 10 nM.
The same measure, in the same setting: as for B5, the figure is under 10 nM; as for B6, under 10 nM.
The same measure, in the same setting: as for B7, the figure is under 10 nM; as for B8, under 10 nM.
For B9, the “EC50 for [Ca2+]” value was under 10 nM.
Turning to B10, the “EC50 for [Ca2+]” value was under 10 nM.
Same read-out and setting: as for B11, the figure is under 10 nM.
Same read-out and setting: as for B12, the figure is under 10 nM.
Turning to B13, the “EC50 for [Ca2+]” value was under 10 nM.
The same measure, in the same setting: as for B14, the figure is under 10 nM; as for B15, under 10 nM; as for B16, under 10 nM.
The same measure, in the same setting: as for B17, the figure is under 10 nM; as for B18, under 10 nM; as for B19, under 10 nM.

The target of the next experiment is T2, FPR1. Kind of experiment: cell-based or functional assay.
Take B2: the “EC50 for [Ca2+]” value is over 10000 nM.
Take B3: the “EC50 for [Ca2+]” value is over 10000 nM.
The same measure, in the same setting: then B4, with over 10000 nM.
On the same count and under the same terms, then B10, with over 10000 nM.
For the molecule B15, the “EC50 for [Ca2+]” value is over 10000 nM.
